This assay has as its target T1, human ACE2 protein (human, UniProt Q9BYF1 18-740).
T1 construct: No catalogue number is printed; also called angiotensin-converting enzyme-2
Put plainly: adsorption isotherm on protein-coupled resin (depletion, micro-BCA). The conditions noted are these: both partners purified.

T1 sequence (Q9BYF1 18-740): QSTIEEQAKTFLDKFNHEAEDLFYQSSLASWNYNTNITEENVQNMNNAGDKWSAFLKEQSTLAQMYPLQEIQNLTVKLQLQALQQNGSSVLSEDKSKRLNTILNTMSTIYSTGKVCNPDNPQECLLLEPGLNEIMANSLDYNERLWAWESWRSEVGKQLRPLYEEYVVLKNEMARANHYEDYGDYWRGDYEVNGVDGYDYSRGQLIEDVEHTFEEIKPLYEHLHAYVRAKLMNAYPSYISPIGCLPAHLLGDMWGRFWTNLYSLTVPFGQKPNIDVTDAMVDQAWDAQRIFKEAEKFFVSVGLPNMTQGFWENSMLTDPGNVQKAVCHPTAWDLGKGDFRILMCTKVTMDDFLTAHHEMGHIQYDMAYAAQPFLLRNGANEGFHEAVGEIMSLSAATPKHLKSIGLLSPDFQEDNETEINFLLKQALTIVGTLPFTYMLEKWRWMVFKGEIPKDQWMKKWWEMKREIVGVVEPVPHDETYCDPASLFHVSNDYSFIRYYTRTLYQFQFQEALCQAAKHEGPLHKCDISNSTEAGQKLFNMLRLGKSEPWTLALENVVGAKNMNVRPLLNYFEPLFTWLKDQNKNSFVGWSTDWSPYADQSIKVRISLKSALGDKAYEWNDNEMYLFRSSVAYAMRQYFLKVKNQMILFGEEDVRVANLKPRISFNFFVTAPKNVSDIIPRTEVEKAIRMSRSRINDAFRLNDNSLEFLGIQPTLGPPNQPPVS

With KYPAY [functional peptide KYPAY (K5)], the Kd (in general, the concentration at which binding is half-saturated) stood at 12.5 µM.

Values taken from PMC11242946 (Molecules, 2024).
